The text below walks through data of patent US20230203177A1 (Bristol-Myers Squibb, published 2023).

Sequences and labels used below:
B1: M65 (HC-wt / LC-R61Q) (antibody, human IgG1, kappa)
heavy: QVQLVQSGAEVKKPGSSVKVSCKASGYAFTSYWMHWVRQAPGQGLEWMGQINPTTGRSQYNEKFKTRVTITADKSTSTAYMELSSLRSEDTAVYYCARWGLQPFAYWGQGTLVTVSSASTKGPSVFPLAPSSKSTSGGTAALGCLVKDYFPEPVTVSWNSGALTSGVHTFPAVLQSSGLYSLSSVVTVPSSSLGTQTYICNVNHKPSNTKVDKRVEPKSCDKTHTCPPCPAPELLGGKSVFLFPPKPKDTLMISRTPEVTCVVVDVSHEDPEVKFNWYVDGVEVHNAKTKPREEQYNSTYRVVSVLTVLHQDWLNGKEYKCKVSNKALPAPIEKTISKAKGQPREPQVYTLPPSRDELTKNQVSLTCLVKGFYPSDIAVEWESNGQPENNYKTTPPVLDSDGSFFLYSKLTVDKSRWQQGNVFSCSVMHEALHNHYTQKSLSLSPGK
light: DIQMTQSPSFLSASVGDRVTITCKASQDVSTAVAWYQQKPGKAPKLLIYSASYRYTGVPSQFSGSGSGTDFTLTISSLQPEDFATYYCQQHYSTPWTFGGGTKVEIKRTVAAPSVFIFPPSDEQLKSGTASVVCLLNNFYPREAKVQWKVDNALQSGNSQESVTEQDSKDSTYSLSSTLTLSKADYEKHKVYACEVTHQGLSSPVTKSFNRGEC
notes: IgG1-P238K; also called HC1/LC5
B2: M85 (HC-K12E,K13Q,K23E / LC-K107Q,R108Q) (antibody, human IgG1, kappa)
heavy: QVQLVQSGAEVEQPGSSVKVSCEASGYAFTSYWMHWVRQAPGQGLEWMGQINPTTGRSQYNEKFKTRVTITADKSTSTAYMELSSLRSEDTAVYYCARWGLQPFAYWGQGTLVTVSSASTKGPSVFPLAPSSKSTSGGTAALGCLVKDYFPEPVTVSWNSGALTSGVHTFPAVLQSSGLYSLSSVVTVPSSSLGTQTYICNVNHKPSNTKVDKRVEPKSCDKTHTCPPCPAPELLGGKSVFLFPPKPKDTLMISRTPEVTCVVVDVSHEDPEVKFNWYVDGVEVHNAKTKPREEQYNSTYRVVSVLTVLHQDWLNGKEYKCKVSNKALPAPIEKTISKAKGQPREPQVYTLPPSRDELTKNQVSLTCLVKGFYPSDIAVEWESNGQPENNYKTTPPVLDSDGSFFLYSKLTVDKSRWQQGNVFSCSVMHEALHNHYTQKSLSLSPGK
light: DIQMTQSPSFLSASVGDRVTITCKASQDVSTAVAWYQQKPGKAPKLLIYSASYRYTGVPSRFSGSGSGTDFTLTISSLQPEDFATYYCQQHYSTPWTFGGGTKVEIQQTVAAPSVFIFPPSDEQLKSGTASVVCLLNNFYPREAKVQWKVDNALQSGNSQESVTEQDSKDSTYSLSSTLTLSKADYEKHKVYACEVTHQGLSSPVTKSFNRGEC
notes: IgG1-P238K; also called HC5/LC6
B3: M71 (HC-K23E / LC-R61Q) (antibody, human IgG1, kappa)
heavy: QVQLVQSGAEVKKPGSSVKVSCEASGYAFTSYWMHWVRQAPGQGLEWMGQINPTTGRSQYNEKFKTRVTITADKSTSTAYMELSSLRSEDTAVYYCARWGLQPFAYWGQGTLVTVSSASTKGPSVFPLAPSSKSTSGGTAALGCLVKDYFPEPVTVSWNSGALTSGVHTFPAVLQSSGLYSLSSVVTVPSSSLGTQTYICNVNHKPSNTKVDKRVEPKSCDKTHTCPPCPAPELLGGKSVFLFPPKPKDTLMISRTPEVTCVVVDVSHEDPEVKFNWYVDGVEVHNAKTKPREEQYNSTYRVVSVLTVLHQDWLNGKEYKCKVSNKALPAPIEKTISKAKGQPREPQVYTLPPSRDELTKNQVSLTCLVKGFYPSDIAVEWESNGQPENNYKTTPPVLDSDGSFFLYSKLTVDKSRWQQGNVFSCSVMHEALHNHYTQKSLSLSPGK
light: DIQMTQSPSFLSASVGDRVTITCKASQDVSTAVAWYQQKPGKAPKLLIYSASYRYTGVPSQFSGSGSGTDFTLTISSLQPEDFATYYCQQHYSTPWTFGGGTKVEIKRTVAAPSVFIFPPSDEQLKSGTASVVCLLNNFYPREAKVQWKVDNALQSGNSQESVTEQDSKDSTYSLSSTLTLSKADYEKHKVYACEVTHQGLSSPVTKSFNRGEC
notes: IgG1-P238K; also called HC7/LC5
B4: M82 (HC-K12Q,K13Q / LC-K107Q,R108Q) (antibody, human IgG1, kappa)
heavy: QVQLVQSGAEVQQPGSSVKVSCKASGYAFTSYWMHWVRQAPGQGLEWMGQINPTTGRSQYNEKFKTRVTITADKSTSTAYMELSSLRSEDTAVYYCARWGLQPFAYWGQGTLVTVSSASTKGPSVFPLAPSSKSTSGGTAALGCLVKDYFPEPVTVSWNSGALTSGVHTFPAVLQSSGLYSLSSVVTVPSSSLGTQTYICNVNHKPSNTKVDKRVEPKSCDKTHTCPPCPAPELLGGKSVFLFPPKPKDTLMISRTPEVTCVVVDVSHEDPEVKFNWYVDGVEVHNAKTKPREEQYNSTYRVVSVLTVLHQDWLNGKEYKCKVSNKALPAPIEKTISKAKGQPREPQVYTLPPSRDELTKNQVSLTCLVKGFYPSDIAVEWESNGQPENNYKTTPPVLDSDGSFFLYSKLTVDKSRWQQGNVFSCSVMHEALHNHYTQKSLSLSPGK
light: DIQMTQSPSFLSASVGDRVTITCKASQDVSTAVAWYQQKPGKAPKLLIYSASYRYTGVPSRFSGSGSGTDFTLTISSLQPEDFATYYCQQHYSTPWTFGGGTKVEIQQTVAAPSVFIFPPSDEQLKSGTASVVCLLNNFYPREAKVQWKVDNALQSGNSQESVTEQDSKDSTYSLSSTLTLSKADYEKHKVYACEVTHQGLSSPVTKSFNRGEC
notes: IgG1-P238K; also called HC2/LC6
B5: M84 (HC-K12E / LC-K107Q,R108Q) (antibody, human IgG1, kappa)
heavy: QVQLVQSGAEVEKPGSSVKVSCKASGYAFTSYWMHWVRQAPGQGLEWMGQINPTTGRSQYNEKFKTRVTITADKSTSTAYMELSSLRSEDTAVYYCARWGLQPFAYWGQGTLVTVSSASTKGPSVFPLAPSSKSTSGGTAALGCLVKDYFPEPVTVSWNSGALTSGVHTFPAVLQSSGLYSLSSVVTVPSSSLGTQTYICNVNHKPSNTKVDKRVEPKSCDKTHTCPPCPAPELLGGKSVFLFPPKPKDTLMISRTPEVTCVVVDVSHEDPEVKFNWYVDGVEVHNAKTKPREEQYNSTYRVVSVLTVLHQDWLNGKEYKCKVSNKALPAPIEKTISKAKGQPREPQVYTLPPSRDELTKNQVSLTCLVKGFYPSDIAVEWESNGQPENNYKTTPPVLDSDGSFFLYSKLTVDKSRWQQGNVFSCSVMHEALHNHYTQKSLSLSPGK
light: DIQMTQSPSFLSASVGDRVTITCKASQDVSTAVAWYQQKPGKAPKLLIYSASYRYTGVPSRFSGSGSGTDFTLTISSLQPEDFATYYCQQHYSTPWTFGGGTKVEIQQTVAAPSVFIFPPSDEQLKSGTASVVCLLNNFYPREAKVQWKVDNALQSGNSQESVTEQDSKDSTYSLSSTLTLSKADYEKHKVYACEVTHQGLSSPVTKSFNRGEC
notes: IgG1-P238K; also called HC4/LC6
B6: M69 (HC-K12E,K13Q,K23E / LC-R61Q) (antibody, human IgG1, kappa)
heavy: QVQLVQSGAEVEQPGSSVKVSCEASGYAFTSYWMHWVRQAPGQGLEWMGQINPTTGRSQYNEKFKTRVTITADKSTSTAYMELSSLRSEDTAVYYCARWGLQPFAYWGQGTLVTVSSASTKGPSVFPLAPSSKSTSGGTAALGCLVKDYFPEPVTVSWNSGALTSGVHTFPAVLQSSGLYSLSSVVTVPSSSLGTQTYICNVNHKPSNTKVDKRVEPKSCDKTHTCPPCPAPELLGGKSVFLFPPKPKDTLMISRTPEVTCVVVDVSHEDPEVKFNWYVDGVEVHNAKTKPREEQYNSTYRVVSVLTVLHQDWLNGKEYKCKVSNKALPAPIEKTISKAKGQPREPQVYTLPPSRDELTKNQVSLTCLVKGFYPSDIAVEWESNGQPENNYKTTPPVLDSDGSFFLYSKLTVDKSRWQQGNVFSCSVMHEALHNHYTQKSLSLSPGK
light: DIQMTQSPSFLSASVGDRVTITCKASQDVSTAVAWYQQKPGKAPKLLIYSASYRYTGVPSQFSGSGSGTDFTLTISSLQPEDFATYYCQQHYSTPWTFGGGTKVEIKRTVAAPSVFIFPPSDEQLKSGTASVVCLLNNFYPREAKVQWKVDNALQSGNSQESVTEQDSKDSTYSLSSTLTLSKADYEKHKVYACEVTHQGLSSPVTKSFNRGEC
notes: IgG1-P238K; also called HC5/LC5
B7: M74 (HC-R67E / LC-R61Q) (antibody, human IgG1, kappa, V domains shown)
VH: QVQLVQSGAEVKKPGSSVKVSCKASGYAFTSYWMHWVRQAPGQGLEWMGQINPTTGRSQYNEKFKTEVTITADKSTSTAYMELSSLRSEDTAVYYCARWGLQPFAYWGQGTLVTVSS
VL: DIQMTQSPSFLSASVGDRVTITCKASQDVSTAVAWYQQKPGKAPKLLIYSASYRYTGVPSQFSGSGSGTDFTLTISSLQPEDFATYYCQQHYSTPWTFGGGTKVEIKR
notes: IgG1-P238K; also called HC10/LC5
B8: M83 (HC-K12Q,K13Q,K23Q / LC-K107Q,R108Q) (antibody, human IgG1, kappa)
heavy: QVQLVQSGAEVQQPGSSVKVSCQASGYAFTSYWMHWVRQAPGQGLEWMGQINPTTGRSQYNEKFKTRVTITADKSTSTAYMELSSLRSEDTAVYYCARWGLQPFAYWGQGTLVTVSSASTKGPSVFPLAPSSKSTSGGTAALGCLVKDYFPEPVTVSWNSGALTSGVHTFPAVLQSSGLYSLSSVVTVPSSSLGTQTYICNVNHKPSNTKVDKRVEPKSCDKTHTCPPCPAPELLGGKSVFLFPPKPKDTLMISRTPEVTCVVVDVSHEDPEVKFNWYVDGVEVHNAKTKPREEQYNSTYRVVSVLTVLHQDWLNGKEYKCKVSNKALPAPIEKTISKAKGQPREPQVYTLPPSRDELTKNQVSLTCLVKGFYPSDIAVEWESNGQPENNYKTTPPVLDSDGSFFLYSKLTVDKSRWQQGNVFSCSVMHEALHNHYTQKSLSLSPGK
light: DIQMTQSPSFLSASVGDRVTITCKASQDVSTAVAWYQQKPGKAPKLLIYSASYRYTGVPSRFSGSGSGTDFTLTISSLQPEDFATYYCQQHYSTPWTFGGGTKVEIQQTVAAPSVFIFPPSDEQLKSGTASVVCLLNNFYPREAKVQWKVDNALQSGNSQESVTEQDSKDSTYSLSSTLTLSKADYEKHKVYACEVTHQGLSSPVTKSFNRGEC
notes: IgG1-P238K; also called HC3/LC6
B9: M73 (HC-K63Q,R67E / LC-R61Q) (antibody, human IgG1, kappa, V domains shown)
VH: QVQLVQSGAEVKKPGSSVKVSCKASGYAFTSYWMHWVRQAPGQGLEWMGQINPTTGRSQYNEQFKTEVTITADKSTSTAYMELSSLRSEDTAVYYCARWGLQPFAYWGQGTLVTVSS
VL: DIQMTQSPSFLSASVGDRVTITCKASQDVSTAVAWYQQKPGKAPKLLIYSASYRYTGVPSQFSGSGSGTDFTLTISSLQPEDFATYYCQQHYSTPWTFGGGTKVEIKR
notes: IgG1-P238K; also called HC9/LC5
B10: M68 (HC-K12E / LC-R61Q) (antibody, human IgG1, kappa)
heavy: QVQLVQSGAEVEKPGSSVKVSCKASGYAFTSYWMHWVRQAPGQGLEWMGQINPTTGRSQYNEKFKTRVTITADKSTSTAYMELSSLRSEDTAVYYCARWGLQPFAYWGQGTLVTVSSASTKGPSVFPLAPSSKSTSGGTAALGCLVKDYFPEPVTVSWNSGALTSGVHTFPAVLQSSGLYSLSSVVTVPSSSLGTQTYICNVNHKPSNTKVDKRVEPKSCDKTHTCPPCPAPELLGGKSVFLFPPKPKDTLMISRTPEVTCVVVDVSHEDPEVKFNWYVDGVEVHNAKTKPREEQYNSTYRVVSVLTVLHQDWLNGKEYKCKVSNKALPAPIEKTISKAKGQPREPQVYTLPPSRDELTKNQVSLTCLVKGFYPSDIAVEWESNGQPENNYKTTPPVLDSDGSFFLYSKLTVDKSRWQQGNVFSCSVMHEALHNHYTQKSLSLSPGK
light: DIQMTQSPSFLSASVGDRVTITCKASQDVSTAVAWYQQKPGKAPKLLIYSASYRYTGVPSQFSGSGSGTDFTLTISSLQPEDFATYYCQQHYSTPWTFGGGTKVEIKRTVAAPSVFIFPPSDEQLKSGTASVVCLLNNFYPREAKVQWKVDNALQSGNSQESVTEQDSKDSTYSLSSTLTLSKADYEKHKVYACEVTHQGLSSPVTKSFNRGEC
notes: IgG1-P238K; also called HC4/LC5
B11: M78 (HC-K74T / LC-R61Q) (antibody, human IgG1, kappa, V domains shown)
VH: QVQLVQSGAEVKKPGSSVKVSCKASGYAFTSYWMHWVRQAPGQGLEWMGQINPTTGRSQYNEKFKTRVTITADTSTSTAYMELSSLRSEDTAVYYCARWGLQPFAYWGQGTLVTVSS
VL: DIQMTQSPSFLSASVGDRVTITCKASQDVSTAVAWYQQKPGKAPKLLIYSASYRYTGVPSQFSGSGSGTDFTLTISSLQPEDFATYYCQQHYSTPWTFGGGTKVEIKR
notes: IgG1-P238K; also called HC14/LC5
B12: M72 (HC-R38Q,K63Q,R67Q / LC-R61Q) (antibody, human IgG1, kappa, V domains shown)
VH: QVQLVQSGAEVKKPGSSVKVSCKASGYAFTSYWMHWVQQAPGQGLEWMGQINPTTGRSQYNEQFKTQVTITADKSTSTAYMELSSLRSEDTAVYYCARWGLQPFAYWGQGTLVTVSS
VL: DIQMTQSPSFLSASVGDRVTITCKASQDVSTAVAWYQQKPGKAPKLLIYSASYRYTGVPSQFSGSGSGTDFTLTISSLQPEDFATYYCQQHYSTPWTFGGGTKVEIKR
notes: IgG1-P238K; also called HC8/LC5
B13: M70 (HC-K12V,K19S,K23A / LC-R61Q) (antibody, human IgG1, kappa, V domains shown)
VH: QVQLVQSGAEVVKPGSSVSVSCAASGYAFTSYWMHWVRQAPGQGLEWMGQINPTTGRSQYNEKFKTRVTITADKSTSTAYMELSSLRSEDTAVYYCARWGLQPFAYWGQGTLVTVSS
VL: DIQMTQSPSFLSASVGDRVTITCKASQDVSTAVAWYQQKPGKAPKLLIYSASYRYTGVPSQFSGSGSGTDFTLTISSLQPEDFATYYCQQHYSTPWTFGGGTKVEIKR
notes: IgG1-P238K; also called HC6/LC5
B14: M76 (HC-R57E,K74Q / LC-R61Q) (antibody, human IgG1, kappa, V domains shown)
VH: QVQLVQSGAEVKKPGSSVKVSCKASGYAFTSYWMHWVRQAPGQGLEWMGQINPTTGESQYNEKFKTRVTITADQSTSTAYMELSSLRSEDTAVYYCARWGLQPFAYWGQGTLVTVSS
VL: DIQMTQSPSFLSASVGDRVTITCKASQDVSTAVAWYQQKPGKAPKLLIYSASYRYTGVPSQFSGSGSGTDFTLTISSLQPEDFATYYCQQHYSTPWTFGGGTKVEIKR
notes: IgG1-P238K; also called HC12/LC5
B15: M77 (HC-E46K,E62K / LC-R61Q) (antibody, human IgG1, kappa, V domains shown)
VH: QVQLVQSGAEVKKPGSSVKVSCKASGYAFTSYWMHWVRQAPGQGLKWMGQINPTTGRSQYNKKFKTRVTITADKSTSTAYMELSSLRSEDTAVYYCARWGLQPFAYWGQGTLVTVSS
VL: DIQMTQSPSFLSASVGDRVTITCKASQDVSTAVAWYQQKPGKAPKLLIYSASYRYTGVPSQFSGSGSGTDFTLTISSLQPEDFATYYCQQHYSTPWTFGGGTKVEIKR
notes: IgG1-P238K; also called HC13/LC5
B16: M79 (HC-R67Q / LC-R61Q) (antibody, human IgG1, kappa, V domains shown)
VH: QVQLVQSGAEVKKPGSSVKVSCKASGYAFTSYWMHWVRQAPGQGLEWMGQINPTTGRSQYNEKFKTQVTITADKSTSTAYMELSSLRSEDTAVYYCARWGLQPFAYWGQGTLVTVSS
VL: DIQMTQSPSFLSASVGDRVTITCKASQDVSTAVAWYQQKPGKAPKLLIYSASYRYTGVPSQFSGSGSGTDFTLTISSLQPEDFATYYCQQHYSTPWTFGGGTKVEIKR
notes: IgG1-P238K; also called HC15/LC5
B17: M75 (HC-R57E / LC-R61Q) (antibody, human IgG1, kappa, V domains shown)
VH: QVQLVQSGAEVKKPGSSVKVSCKASGYAFTSYWMHWVRQAPGQGLEWMGQINPTTGESQYNEKFKTRVTITADKSTSTAYMELSSLRSEDTAVYYCARWGLQPFAYWGQGTLVTVSS
VL: DIQMTQSPSFLSASVGDRVTITCKASQDVSTAVAWYQQKPGKAPKLLIYSASYRYTGVPSQFSGSGSGTDFTLTISSLQPEDFATYYCQQHYSTPWTFGGGTKVEIKR
notes: IgG1-P238K; also called HC11/LC5
B18: M67 (HC-K12Q,K13Q,K23Q / LC-R61Q) (antibody, human IgG1, kappa, V domains shown)
VH: QVQLVQSGAEVQQPGSSVKVSCQASGYAFTSYWMHWVRQAPGQGLEWMGQINPTTGRSQYNEKFKTRVTITADKSTSTAYMELSSLRSEDTAVYYCARWGLQPFAYWGQGTLVTVSS
VL: DIQMTQSPSFLSASVGDRVTITCKASQDVSTAVAWYQQKPGKAPKLLIYSASYRYTGVPSQFSGSGSGTDFTLTISSLQPEDFATYYCQQHYSTPWTFGGGTKVEIKR
notes: IgG1-P238K; also called HC3/LC5
B19: M66 (HC-K12Q,K13Q / LC-R61Q) (antibody, human IgG1, kappa)
heavy: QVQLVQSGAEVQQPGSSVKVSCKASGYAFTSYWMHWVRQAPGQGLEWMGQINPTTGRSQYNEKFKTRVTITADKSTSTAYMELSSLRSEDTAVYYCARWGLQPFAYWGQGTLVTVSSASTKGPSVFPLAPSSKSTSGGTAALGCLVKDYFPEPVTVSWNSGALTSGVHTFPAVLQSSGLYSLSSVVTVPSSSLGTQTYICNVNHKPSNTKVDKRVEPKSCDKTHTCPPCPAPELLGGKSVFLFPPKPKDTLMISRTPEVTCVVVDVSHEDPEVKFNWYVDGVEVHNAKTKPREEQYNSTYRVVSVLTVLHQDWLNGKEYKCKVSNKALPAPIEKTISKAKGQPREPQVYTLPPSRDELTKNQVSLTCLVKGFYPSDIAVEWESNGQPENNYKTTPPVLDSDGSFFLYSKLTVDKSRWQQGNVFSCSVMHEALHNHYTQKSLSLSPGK
light: DIQMTQSPSFLSASVGDRVTITCKASQDVSTAVAWYQQKPGKAPKLLIYSASYRYTGVPSQFSGSGSGTDFTLTISSLQPEDFATYYCQQHYSTPWTFGGGTKVEIKRTVAAPSVFIFPPSDEQLKSGTASVVCLLNNFYPREAKVQWKVDNALQSGNSQESVTEQDSKDSTYSLSSTLTLSKADYEKHKVYACEVTHQGLSSPVTKSFNRGEC
notes: IgG1-P238K; also called HC2/LC5
B20: M86 (HC-K12V,K19S,K23A / LC-K107Q,R108Q) (antibody, human IgG1, kappa)
heavy: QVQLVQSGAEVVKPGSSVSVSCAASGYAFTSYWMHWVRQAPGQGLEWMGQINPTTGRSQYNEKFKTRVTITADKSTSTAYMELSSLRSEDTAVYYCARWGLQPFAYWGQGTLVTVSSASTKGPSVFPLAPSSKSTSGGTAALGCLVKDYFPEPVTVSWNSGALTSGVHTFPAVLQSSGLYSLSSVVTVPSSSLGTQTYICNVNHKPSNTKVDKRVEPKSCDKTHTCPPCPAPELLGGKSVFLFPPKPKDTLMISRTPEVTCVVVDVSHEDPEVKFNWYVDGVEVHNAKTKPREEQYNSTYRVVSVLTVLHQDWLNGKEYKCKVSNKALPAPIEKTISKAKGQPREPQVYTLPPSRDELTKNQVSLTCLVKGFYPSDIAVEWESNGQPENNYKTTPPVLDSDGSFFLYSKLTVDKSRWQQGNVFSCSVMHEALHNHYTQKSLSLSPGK
light: DIQMTQSPSFLSASVGDRVTITCKASQDVSTAVAWYQQKPGKAPKLLIYSASYRYTGVPSRFSGSGSGTDFTLTISSLQPEDFATYYCQQHYSTPWTFGGGTKVEIQQTVAAPSVFIFPPSDEQLKSGTASVVCLLNNFYPREAKVQWKVDNALQSGNSQESVTEQDSKDSTYSLSSTLTLSKADYEKHKVYACEVTHQGLSSPVTKSFNRGEC
notes: IgG1-P238K; also called HC6/LC6

The target in this test is T1, soluble human CD40 extracellular domain (human, UniProt P25942 21-193).
T1 construct: Produced in house; also called hCD40; soluble hCD40 extracellular domain
T1 sequence (P25942 21-193 limits assumed): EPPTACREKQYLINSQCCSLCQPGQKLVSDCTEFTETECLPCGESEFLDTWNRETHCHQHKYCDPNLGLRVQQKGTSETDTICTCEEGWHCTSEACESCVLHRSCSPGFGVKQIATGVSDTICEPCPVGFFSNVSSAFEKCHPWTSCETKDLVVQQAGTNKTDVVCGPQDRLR
The test is described as follows: SPR, Ab captured from supernatant on protein A, hCD40 ECD analyte. On the procedure: The titer data (Table 21) were used to normalize the antibody concentration in each supernatant to 3 μg/ml, and these antibodies were captured out of the supernatants on a protein A CMS Series S sensor chip (GE Healthcare), and tested for binding to two concentrations (5 nM and 50 nM) of soluble hCD40 extracellular domain.
CD40 binding SPR of antibody supernatants: Surface plasmon resonance (SPR) studies were conducted on a BIAcore™ T200 instrument (GE Healthcare, Chicago Ill.). A Series S Protein A sensor chip (GE Healthcare, Chicago Ill.) was equilibrated with SPR running buffer of 10 mM NaPO₄, 130 mM NaCl, 0.05% tween 20, (PBS-T) pH 7.2 at 25° C. The 96 antibody supernatants were normalized to a concentration of 3 μg/ml by diluting with PBS-T using a PerkinElmer JANUS® G3 system (PerkinElmer, Akron, Ohio). After priming the system, the 3 μg/ml antibody samples were captured on the protein A surface for 30 s at 10 μl/min Binding of 50 nM and 500 nM human CD40 extracellular domain (produced in house) was evaluated using association time of 180 s at 30 μl/min, followed by a dissociation time of 180 s at 30 μl/min Regeneration between cycles was accomplished using two 15 s injections of 10 mM glycine pH 1.5. […] Data were analyzed using BIAcore™ T200 evaluation software by fitting to a 1:1 Langmuir model.
In the case of B1, the Kd was 4.3 nM. B2 displayed a Kd of 3.3 nM. On to B3, for which binding was put at a Kd of 4.4 nM. This Kd and that of the molecule before are within 1.5-fold of each other.

The molecule B4 returned a Kd of 3.2 nM.

Molecule B5 had a dissociation constant (Kd) of 3.3 nM. The value for B6 was 3.8 nM; that for B7 was 2.9 nM; that for B8 was 3.6 nM.

In turn, B9 registered an equilibrium dissociation constant (Kd) of 3 nM. With B10, binding was characterised by a dissociation constant (Kd) of 3.6 nM. On to B11, for which the affinity, expressed as Kd, was 4 nM.

Take B12: the dissociation constant Kd came out at 2.9 nM. The value for B13 was 3.5 nM; that for B14 was 14.8 nM. The value for B15 was 7.9 nM. The value for B16 was 3.5 nM; that for B17 was 10.5 nM; that for B18 was 3.6 nM. Consider B19, for which binding was put at a Kd of 3.6 nM. In other words, the single-digit nanomolar range.

The molecule B20 showed a Kd of 3.7 nM. The Kd values of the last two molecules are within 1.5-fold of each other.
